Laboratory results published in article PMC12511343, “Structural insights into Cir-mediated killing by the antimicrobial protein Microcin V” (Communications Biology, 2025).
Where a chain is given by its changes, count along the chain named.

B1: Microcin V (MccV), mature, wildtype (natural protein, E. coli, UniProt P22522 16-103, looked up)
chain: ASGRDIAMAIGTLSGQFVAGGIGAAAGGVAGGAIYDYASTHKPNPAMSPSGLGGTIKQKPEGIPSEAWNYAAGRLCNWSPNNLSDVCL
modifications: biotinylated (EZ-Link Sulfo-NHS-LC kit) for BLI and ELISA; not labelled for cryo-EM and SV-AUC
notes: Only residues 57-88 (mature numbering) were resolved in the map; also called WT MccV; Colicin V; source: E. coli BL21 (DE3), purified (HisTrap as His6-MBP fusion, TEV cleavage, second nickel column, flowthrough); not shown: His6, N-terminal, cleaved; MBP, N-terminal, cleaved
B2: 4-Met substituted E. coli Cir (colicin Ia receptor), the paper's wildtype (WT) Cir (receptor)
chain: VDDDGETMVVTASSVEQNLKDAPASISVITQEDLQRKPVQNLKDVLKEVPGVQLTNEGDNRKGVSIRGLDSSYTLILVDGKRVNSRNAVFRHNDFDLNWIPVDSIERIEVVRGPMSSLYGSDALGGVVNIITKKIGQKWSGTVTVDTTIQEHRDRGDTYNGQFFTSGPLIDGVLGMKAYGSLAKREKDDPQNSTTTDTGETPRIEGFSSRDGNVEFAWTPNQNHDFTAGYGFDRQDRDSDSLDKNRLERQNYSVSHNGRWDYGTSELKYYGEKVENKNPGNSSPITSESNTVDGKYTLPLTAINQFLTVGGEMRHDKMSDAVNLTGGTSSKTSASQYALFVEDEWRIFEPLALTTGVRMDDHETYGEHWSPRAYLVYNATDTVTVKGGWATAFKAPSLLQLSPDWTSNSCRGACKIVGSPDLKPETSESWELGLYYMGEEGWLEGVESSVTVFRNDVKDRISISRTSDVNAAPGYQNFVGFETGANGRRIPVFSYYNVNKARIQGVETELKIPFNDEWKLSINYTYNDGRDVSNGENKPLSDLPFHTANGTLDWKPLALEDWSMYMSGHYTGQKRADSATAKTPGGYTIWNTGAAWQVTKDVKLRAGVLNLGDKDLSRDDYSYNEDGRRYFMAVDYRF

Legend:
[1] = target: T1, Cir TonB Box mutant M33C/V35P (in 4-Met Cir) (E. coli, UniProt P17315 26-663, W338 mutated to methionine | L343 mutated to methionine | F589 mutated to …); test: BLI
T1 sequence: B2 chain with M8C, V10P

Cir C435A (in 4-Met Cir) = target: T2, Cir C435A (in 4-Met Cir) (E. coli, UniProt P17315 26-663, W338 mutated to methionine | L343 mutated to methionine | F589 mutated to …); test: BLI
T2 sequence: B2 chain with C410A

[2] = target: T3, Cir R436E/R490E (in 4-Met Cir) (E. coli, UniProt P17315 26-663, W338 mutated to methionine | L343 mutated to methionine | F589 mutated to …); test: BLI
T3 sequence: B2 chain with R411E, R465E

[3] = target: T4, 4-Met substituted E. coli Cir (colicin Ia receptor), the paper's wildtype (WT) Cir (E. coli, UniProt P17315 26-663, W338 mutated to methionine | L343 mutated to methionine | F589 mutated to …); test: BLI + AUC; stoichiometry reported from the concurrence of BLI (1:1 model) and SV-AUC (single-site model); conditions: both partners purified
T4 construct: Cir (colicin Ia receptor, TonB-dependent transporter), E. coli, mature coding region of cirA with four residues changed to methionine (4-Met); No TEV cleavage of Cir is described; also called apo-Cir; His-tagged Cir; not shown: His10, N-terminal, kept
T4 sequence (looked up): B2 chain

[4] = target: T4, 4-Met substituted E. coli Cir (colicin …); test: AUC; sedimentation velocity, NAPol-solubilised Cir and its mixtures with MccV in phosphate-buffered saline, 50,000 rpm, 20 C; single-site model; conditions: both partners purified
[5] = target: T4, 4-Met substituted E. coli Cir (colicin …); test: BLI; biotinylated MccV (100 nM) on streptavidin sensors, WT Cir 5 uM to 78 nM in PBS-T; steady state equilibrium, 1:1 binding model; incomplete equilibrium during the association phase; conditions: both partners purified
[6] = target: T4, 4-Met substituted E. coli Cir (colicin …); test: BLI; biotinylated MccV (100 nM) loaded on streptavidin SA-XT sensors, Cir in twofold dilutions 5 uM to 78 nM in PBS-T; 300 s association, 240 s dissociation; first 30 s of association and dissociation fit to a 1:1 global model; conditions: both partners purified
[7] = target: D85A and D85R (MccV mutants, as a group); test: as above

Binder	Kd [1]	Kd (Cir C435A (in 4-Met Cir))	Kd [2]	stoichiometry N [3]	Kd [4]	Kd [5]	Kd [6]	percent reduction in response shift relative to WT at 5 μM probe [7]
B1	374 nM	552 nM	1580 nM	1	600 ± 200 nM	1700 ± 1200 nM	155 ± 30 nM	–
B2	–	–	–	–	–	–	–	40 to 45%
